Data reported in PMC6555819, “Comprehensive study of nuclear receptor DNA binding provides a revised framework for understanding receptor specificity”.
Positions count from the first letter of the chain named.

B1: NRC3_wobSeed20_DR0_A9G_o1 (dsDNA)
DNA 1: GCAGAATGGGGTTAAGATCAGGGAAACAGAATACATGCGATTGACAGCGTAGAATGAAGG
DNA 2: CCTTCATTCTACGCTGTCAATCGCATGTATTCTGTTTCCCTGATCTTAACCCCATTCTGC
B2: NRC3_wobSeed93_DR3_A18G_o1 (dsDNA)
DNA 1: GCAGTCAAAGTTCATCTGGGTAACGTAAGATATGCTGCGATTGACAGCGTAGAATGAAGG
DNA 2: CCTTCATTCTACGCTGTCAATCGCAGCATATCTTACGTTACCCAGATGAACTTTGACTGC
B3: NRC3_wobSeed93_DR3_C16T_o1 (dsDNA)
DNA 1: B2 DNA 1 with C16T, G18A
DNA 2: B2 DNA 2 with C43T, G45A
B4: NRC3_wobSeed133_DR5_G17T_o1 (dsDNA)
DNA 1: GCCGTCCAAGGTCAATTCTAGGTCAGTGAAAGCATTGCGATTGACAGCGTAGAATGAAGG
DNA 2: CCTTCATTCTACGCTGTCAATCGCAATGCTTTCACTGACCTAGAATTGACCTTGGACGGC
B5: NRC3_wobSeed133_DR5_C7G_o1 (dsDNA)
DNA 1: B4 DNA 1 with C7G, T17G
DNA 2: B4 DNA 2 with A44C, G54C
B6: NRC3_wobSeed109_DR4_G4C_o1 (dsDNA)
DNA 1: GCCCTCCAAGGTCATAGGAGGTCAGTGAAGACAGATGCGATTGACAGCGTAGAATGAAGG
DNA 2: CCTTCATTCTACGCTGTCAATCGCATCTGTCTTCACTGACCTCCTATGACCTTGGAGGGC
B7: NRC3_wobSeed113_DR4_A28C_o1 (dsDNA)
DNA 1: GCATATGTAGGTTAGCTGGGGTCATTCCGACTAGGCGCGATTGACAGCGTAGAATGAAGG
DNA 2: CCTTCATTCTACGCTGTCAATCGCGCCTAGTCGGAATGACCCCAGCTAACCTACATATGC
B8: NRC3_wobSeed4_DR0_T22A_o1 (dsDNA)
DNA 1: GCCCTACTGGGCCAAGGTCATAGATCAGTCAAAGCAGCGATTGACAGCGTAGAATGAAGG
DNA 2: CCTTCATTCTACGCTGTCAATCGCTGCTTTGACTGATCTATGACCTTGGCCCAGTAGGGC
B9: NRC3_wobSeed58_DR2_G18C_o1 (dsDNA)
DNA 1: GCATCGAAAGGTCGTGACGTGAGTATACAGAAAGGCGCGATTGACAGCGTAGAATGAAGG
DNA 2: CCTTCATTCTACGCTGTCAATCGCGCCTTTCTGTATACTCACGTCACGACCTTTCGATGC
B10: NRC3_wobSeed69_DR2_T20C_o1 (dsDNA)
DNA 1: GCAGTCAAAGTTCACTAGGCAACGTAAGATTCAGCTGCGATTGACAGCGTAGAATGAAGG
DNA 2: CCTTCATTCTACGCTGTCAATCGCAGCTGAATCTTACGTTGCCTAGTGAACTTTGACTGC
B11: NRC3_wobSeed22_DR0_T22G_o1 (dsDNA)
DNA 1: GCTTACCAAGGTGAAGGTCGTGGATCCCTCTGTAGAGCGATTGACAGCGTAGAATGAAGG
DNA 2: CCTTCATTCTACGCTGTCAATCGCTCTACAGAGGGATCCACGACCTTCACCTTGGTAAGC
B12: NRC3_wobSeed141_DR5_C26A_o1 (dsDNA)
DNA 1: GCAGTCAAAGTTCAGGACGAGGTAAAGTAAAGCACGGCGATTGACAGCGTAGAATGAAGG
DNA 2: CCTTCATTCTACGCTGTCAATCGCCGTGCTTTACTTTACCTCGTCCTGAACTTTGACTGC
B13: NRC3_wobSeed141_DR5_G22A_o1 (dsDNA)
DNA 1: B12 DNA 1 with G22A, A26C
DNA 2: B12 DNA 2 with T35G, C39T
B14: NRC3_wobSeed32_DR1_A9T_o1 (dsDNA)
DNA 1: GCTCTTGTTGATCAAAGGTTAAGAAAGCCGAAGCCTGCGATTGACAGCGTAGAATGAAGG
DNA 2: CCTTCATTCTACGCTGTCAATCGCAGGCTTCGGCTTTCTTAACCTTTGATCAACAAGAGC
B15: NRC3_wobSeed61_DR2_T24A_o1 (dsDNA)
DNA 1: GCCGTCCAAGGTCAGCAGGTCAGAGAAAGCGACGTGGCGATTGACAGCGTAGAATGAAGG
DNA 2: CCTTCATTCTACGCTGTCAATCGCCACGTCGCTTTCTCTGACCTGCTGACCTTGGACGGC
B16: NRC3_wobSeed77_DR3_C16G_o1 (dsDNA)
DNA 1: GCACTTACGGGTCAAGGAGGTTATAGCACGCGTATAGCGATTGACAGCGTAGAATGAAGG
DNA 2: CCTTCATTCTACGCTGTCAATCGCTATACGCGTGCTATAACCTCCTTGACCCGTAAGTGC
B17: NRC3_wobSeed77_DR3_G19A_o1 (dsDNA)
DNA 1: B16 DNA 1 with G16C, G19A
DNA 2: B16 DNA 2 with C42T, C45G
B18: NRC3_wobSeed111_DR4_A17G_o1 (dsDNA)
DNA 1: GCCGAACTAGGTCAGAGCAGGACAGTGAAGGATGATGCGATTGACAGCGTAGAATGAAGG
DNA 2: CCTTCATTCTACGCTGTCAATCGCATCATCCTTCACTGTCCTGCTCTGACCTAGTTCGGC
B19: NRC3_wobSeed90_DR3_G15T_o1 (dsDNA)
DNA 1: GCCATACAGGGTCATCTAGGCCAGAGTAGGGACGGCGCGATTGACAGCGTAGAATGAAGG
DNA 2: CCTTCATTCTACGCTGTCAATCGCGCCGTCCCTACTCTGGCCTAGATGACCCTGTATGGC
B20: NRC3_wobSeed43_DR1_A25C_o1 (dsDNA)
DNA 1: GCCCAGACAGGTGAAAGGTAACTCCGTCTGGTACGCGCGATTGACAGCGTAGAATGAAGG
DNA 2: CCTTCATTCTACGCTGTCAATCGCGCGTACCAGACGGAGTTACCTTTCACCTGTCTGGGC
B21: NRC3_wobSeed27_DR1_C13T_o1 (dsDNA)
DNA 1: GCACTCGGAGGATAAAGGTCAGAGCTACGCCAGTGAGCGATTGACAGCGTAGAATGAAGG
DNA 2: CCTTCATTCTACGCTGTCAATCGCTCACTGGCGTAGCTCTGACCTTTATCCTCCGAGTGC
B22: NRC3_wobSeed27_DR1_A15G_o1 (dsDNA)
DNA 1: B21 DNA 1 with T13C, A15G
DNA 2: B21 DNA 2 with T46C, A48G
B23: NRC3_wobSeed34_DR1_C5A_o1 (dsDNA)
DNA 1: GCATAGAAAGGTCGAAGGTGAGTATACCCACCCGAAGCGATTGACAGCGTAGAATGAAGG
DNA 2: CCTTCATTCTACGCTGTCAATCGCTTCGGGTGGGTATACTCACCTTCGACCTTTCTATGC
B24: NRC3_wobSeed34_DR1_T25C_o1 (dsDNA)
DNA 1: B23 DNA 1 with A5C, T25C
DNA 2: B23 DNA 2 with A36G, T56G
B25: NRC3_wobSeed55_DR2_A15T_o1 (dsDNA)
DNA 1: GCTCATATAGGTAATCAGGTGAAAGTCCGTAAGTTAGCGATTGACAGCGTAGAATGAAGG
DNA 2: CCTTCATTCTACGCTGTCAATCGCTAACTTACGGACTTTCACCTGATTACCTATATGAGC
B26: NRC3_wobSeed53_DR2_C15G_o1 (dsDNA)
DNA 1: GCCCTTACGGGTCAGGAGGTTATAGCACGACGAGCGGCGATTGACAGCGTAGAATGAAGG
DNA 2: CCTTCATTCTACGCTGTCAATCGCCGCTCGTCGTGCTATAACCTCCTGACCCGTAAGGGC
B27: NRC3_wobSeed46_DR1_G13A_o1 (dsDNA)
DNA 1: GCTTACCAAGGTAAAAGGTCGTTGATGCACGCCTTGGCGATTGACAGCGTAGAATGAAGG
DNA 2: CCTTCATTCTACGCTGTCAATCGCCAAGGCGTGCATCAACGACCTTTTACCTTGGTAAGC
B28: NRC3_wobSeed46_DR1_G10A_o1 (dsDNA)
DNA 1: B27 DNA 1 with G10A, A13G
DNA 2: B27 DNA 2 with T48C, C51T
B29: NRC3_wobSeed5_DR0_A15C_o1 (dsDNA)
DNA 1: GCCCTTACGGGTCACGGTTATAGCACGGGTGGTACGGCGATTGACAGCGTAGAATGAAGG
DNA 2: CCTTCATTCTACGCTGTCAATCGCCGTACCACCCGTGCTATAACCGTGACCCGTAAGGGC
B30: NRC3_wobSeed138_DR5_G15T_o1 (dsDNA)
DNA 1: GCGATACAGGGTCATCTAGAGGCCAGAGTATGGAAAGCGATTGACAGCGTAGAATGAAGG
DNA 2: CCTTCATTCTACGCTGTCAATCGCTTTCCATACTCTGGCCTCTAGATGACCCTGTATCGC
B31: NRC3_wobSeed138_DR5_A6T_o1 (dsDNA)
DNA 1: B30 DNA 1 with A6T, T15G
DNA 2: B30 DNA 2 with A46C, T55A
B32: NRC3_wobSeed74_DR3_A27G_o1 (dsDNA)
DNA 1: GCTCTAGTTGGTCACGGAGGTCACACGCGACGGGTAGCGATTGACAGCGTAGAATGAAGG
DNA 2: CCTTCATTCTACGCTGTCAATCGCTACCCGTCGCGTGTGACCTCCGTGACCAACTAGAGC
B33: NRC3_wobSeed18_DR0_G23A_o1 (dsDNA)
DNA 1: GCGATACAGGGTCAAGGCCAGAATACGCGTATTGATGCGATTGACAGCGTAGAATGAAGG
DNA 2: CCTTCATTCTACGCTGTCAATCGCATCAATACGCGTATTCTGGCCTTGACCCTGTATCGC
B34: NRC3_wobSeed7_DR0_A13T_o1 (dsDNA)
DNA 1: GCTCATATAGGTTAAGGTGAAAGTCGAACGATATGAGCGATTGACAGCGTAGAATGAAGG
DNA 2: CCTTCATTCTACGCTGTCAATCGCTCATATCGTTCGACTTTCACCTTAACCTATATGAGC

target: PPARg:RXRa (Homo sapiens, UniProt P37231;P19793 full;full); test: no ligand; PBM; 180 nM : 90 nM RXRa; PBS pH 7.4, 2% milk, 0.02% Triton X-100, 1 mM DTT, BSA, 0.4 mg/ml salmon testes DNA; conditions: tags: His kept;His cleaved; copies: 1;1; label: surface-attached array probe
Sequence (P37231 29-505, chain 1 of 2): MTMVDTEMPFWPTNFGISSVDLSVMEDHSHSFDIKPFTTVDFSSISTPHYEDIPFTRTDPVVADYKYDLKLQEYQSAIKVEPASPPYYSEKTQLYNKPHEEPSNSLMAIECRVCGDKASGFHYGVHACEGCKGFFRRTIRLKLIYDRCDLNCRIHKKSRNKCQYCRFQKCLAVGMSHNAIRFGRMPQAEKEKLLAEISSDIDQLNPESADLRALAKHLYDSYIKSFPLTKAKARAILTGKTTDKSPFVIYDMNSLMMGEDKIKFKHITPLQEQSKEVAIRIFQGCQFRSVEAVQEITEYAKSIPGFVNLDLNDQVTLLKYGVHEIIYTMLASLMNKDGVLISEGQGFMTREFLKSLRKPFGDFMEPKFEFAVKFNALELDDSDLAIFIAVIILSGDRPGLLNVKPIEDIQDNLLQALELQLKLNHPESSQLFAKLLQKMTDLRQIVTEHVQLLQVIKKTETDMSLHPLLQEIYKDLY
Sequence (P19793 whole entry, chain 2 of 2): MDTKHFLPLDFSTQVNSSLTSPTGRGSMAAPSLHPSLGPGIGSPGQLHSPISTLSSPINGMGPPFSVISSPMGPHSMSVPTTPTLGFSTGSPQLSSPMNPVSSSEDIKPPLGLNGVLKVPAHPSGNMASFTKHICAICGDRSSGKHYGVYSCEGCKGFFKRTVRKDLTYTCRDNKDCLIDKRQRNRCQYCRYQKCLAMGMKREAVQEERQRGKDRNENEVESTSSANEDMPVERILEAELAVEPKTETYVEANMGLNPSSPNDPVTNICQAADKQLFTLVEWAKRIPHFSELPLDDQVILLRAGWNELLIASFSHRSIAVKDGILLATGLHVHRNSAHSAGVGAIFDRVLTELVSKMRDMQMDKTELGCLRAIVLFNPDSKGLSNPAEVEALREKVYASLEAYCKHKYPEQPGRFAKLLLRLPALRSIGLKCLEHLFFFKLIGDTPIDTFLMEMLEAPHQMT

Going from B1 to B2, the binding signal rises from 4.73 PBM z-score against 500 random probes to 6.45 PBM z-score against 500 random probes.

Going from B3 to B4, the binding signal falls from 5.92 PBM z-score against 500 random probes to 4.21 PBM z-score against 500 random probes.

First: B5
Second: B6
The binding signal of the first is lower: 4.13 PBM z-score against 500 random probes for the first, 5.72 PBM z-score against 500 random probes for the second.

Compared with B7, B8 is lower in binding signal: 5.53 PBM z-score against 500 random probes for the first, 4.36 PBM z-score against 500 random probes for the second.

Compared with B9, B10 is higher in binding signal: 3.63 PBM z-score against 500 random probes for the first, 6.68 PBM z-score against 500 random probes for the second.

Compared with B11, B12 is higher in binding signal: 3.58 PBM z-score against 500 random probes for the first, 4.92 PBM z-score against 500 random probes for the second.

First: B13
Second: B14
The binding signal of the first is higher: 4.64 PBM z-score against 500 random probes for the first, 4.28 PBM z-score against 500 random probes for the second.

Going from B15 to B16, the binding signal rises from 4.83 PBM z-score against 500 random probes to 5.22 PBM z-score against 500 random probes.

Compared with B17, B18 is higher in binding signal: 4.99 PBM z-score against 500 random probes for the first, 5.81 PBM z-score against 500 random probes for the second.

Compared with B19, B20 is higher in binding signal: 5.29 PBM z-score against 500 random probes for the first, 5.61 PBM z-score against 500 random probes for the second.

Compared with B21, B22 is lower in binding signal: 6.02 PBM z-score against 500 random probes for the first, 4.56 PBM z-score against 500 random probes for the second.

Compared with B23, B24 is lower in binding signal: 5.06 PBM z-score against 500 random probes for the first, 4.49 PBM z-score against 500 random probes for the second.

Compared with B25, B26 is lower in binding signal: 3.84 PBM z-score against 500 random probes for the first, 3.77 PBM z-score against 500 random probes for the second.

Compared with B27, B28 is lower in binding signal: 6.58 PBM z-score against 500 random probes for the first, 3.7 PBM z-score against 500 random probes for the second.

Compared with B29, B30 is lower in binding signal: 6.21 PBM z-score against 500 random probes for the first, 6.11 PBM z-score against 500 random probes for the second.

Going from B31 to B32, the binding signal falls from 4.08 PBM z-score against 500 random probes to 3.93 PBM z-score against 500 random probes.

Compared with B33, B34 is lower in binding signal: 6.34 PBM z-score against 500 random probes for the first, 4.42 PBM z-score against 500 random probes for the second.
